Data from the nanobody polyreactivity screen of Harvey et al. (2022).

Test: yeast display, Sf9 membrane polyspecificity reagent, FACS + sequencing; frameworks hold sequencing errors
Outline: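 Polyreactivity labels are assigned by the sorting gate from which each nanobody was recovered. The gates were low and high (top ~1%), set on anti-HA fluorescence for expression and streptavidin fluorescence for reagent binding. Before sorting, galactose-induced (36–48 hours) yeast display cells were stained for 1 hour at 4 °C with 10% biotinylated, detergent-solubilized Sf9 membrane reagent.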

Sequence	polyreactivity (PSR sort gate)
QVQLVESGGGLVQAGGSLRLSCAASGSIFALYAMGWYRQAPGKERELVAAISYRGGRTYYADSVKGRFTISRDNAKNTVYLQMYSLKPEDTAVYNCATDFPGKFDYWGQGTQVTVSS	low polyreactivity
QVQLVESGGGLVQAGGSLRLSCAASGSIFALYTMGWYRQAPGKERELVAAISRRGGKTYYADSVKGRFTISRDNAKNTVYLQMNSLKPEDTAVYYCNADRLRSTHDYWGQGTQVTVSS	high polyreactivity
QVQLVESGGGLVQAGGSLRLSCAASGSIFALYTMGWYRQAPGKEREMVAAISRRGGNKYYADSVKGRFTISRDNAKNTVYLQMNRLKPEDTAVYYCNADRLRSTHDYWGQGTQVSVSS	high polyreactivity
QVQLVESGGGLVQAGGSLRLSCAASGSIFAPNAMGWYRQAPGKERELVAAISRSGGRTYYADSVKGRFTISRDNAKNTVYFQMNSLKPEDTAVYYCAADYKHQRTYGSWGQGTQVTVSS	high polyreactivity
QVQLVESGGGLVQAGGSLRLSCAASGSIFAQYAMGWYRQAPGKERELVATISSVGSTNYADSVKGRFTISRDNAKNTVYLQMNSLKPEDTAVYYCAARYPVGRSPRAYEYWGQGTQVTVSS	low polyreactivity
QVQLVESGGGLVQAGGSLRLSCAASGSIFAQYGLGWYRQAPGKERELVADISGPGVSTYYADSVKGRFTISRDNAKNTVYLQMNSLKPEDSAVYYCAADYYYPYYWGQGTQVTVSS	low polyreactivity
QVQLVESGGGLVQAGGSLRLSCAASGSIFARYAMGWYRQAPGKERELVATISYRGSSTYYADSVKGRFKISRDNAKNTVYLQMNRLKPEDTAVYSCAARTYRRIYAYYRLDYWGQGTQVTVSS	low polyreactivity
QVQLVESGGGLVQAGGSLRLSCAASGSIFARYTMGWYRQAPGKERELVARITSSGGSTYYADSVKGRFTISRDNAKNTVYLQMNSLKPEDTAVYYCNKAYRYYWRMEYWGQGTQVTVSS	high polyreactivity
QVQLVESGGGLVQAGGSLRLSCAASGSIFASNSMGWYRQEPGQERELVAAINSGDSTNYADTVKGRFTISRDTAKNTVYLQMNSLKPEDTAVYYCARGLEERYDYWGQRTQVTVSS	low polyreactivity
QVQLVESGGGLVQAGGSLRLSCAASGSIFASYALGWYRQAAGKEREFVAAISQSGSRTYNADSVKGRFTISRDNANNTVSLHMNSLKPEDTAVYYCNAKRGTWNYDYWGQGTQVTVSS	high polyreactivity
QVQLVESGGGLVQAGGSLRLSCAASGSIFASYAMGWYRQAPGKERELVAAISRRAVRTYYADSVKGRFTISRDNAKNTVYLQMNSLKPEDTAVYYCNAASSLPGYDYWGQGTQVTVSS	high polyreactivity
QVQLVESGGGLVQAGGSLRLSCAASGSIFASYAMGWYRQAPGKERELVAAITRGGRTNYADSVKGRFTISRDNAKNTVYLQMNSLKPEDTAVYYCAKQYALVWRGYIYGYWGQGTQVTVSS	high polyreactivity
QVQLVESGGGLVQAGGSLRLSCAASGSIFASYAMGWYRQAPGKESELVAAITYSGSRTYYADSVKGRFTISRYNAKNTVYLQMNSMKPEDTAVYYCNADYYWYPYEDDYWGQGSQVTVSS	low polyreactivity
QVQLVESGGGLVQAGGSLRLSCAASGSIFASYAMGWYRQEPGKERELVAAISRRAVRTYYADSVKGRFTISRDNAQNTVYLQMNSLKPEDTAVFYCAKDYRDWRKYDFWGQGTQVTVSS	high polyreactivity
QVQLVESGGGLVQAGGSLRLSCAASGSIFATNAMGWYRQAPGKERELVAAISRSGASTYYADSVKGRFTISRDNAKNTVYLQMNSLKPEDPAVYYCNKVLYRDAYHSYGFDYWGQGTQVTVSS	high polyreactivity
QVQLVESGGGLVQAGGSLRLSCAASGSIFATNAMGWYRQAPGKERELVATITNSGASTSYADSVKGRFTISRDNAKNTVYLQMNSLKPEDTAVYYCNAYGYRAYGVRGYTYGYDYWGQGTQVTVSS	low polyreactivity
QVQLVESGGGLVQAGGSLRLSCAASGSIFATYAMGWYRQAPGKEMELVAVISCGGGRTNYADSVKGRFTISRDNAKNTVYLQLNSLKPEDTAVYYCAAGGYWRIATDGPRGGDYWGQGTQVTVSS	high polyreactivity
QVQLVESGGGLVQAGGSLRLSCAASGSIFAVNPMGWYRQAPGKERELVASITSGGSTNYADSVKGRFTISRDNAKIRVYLQMNRLKPEDTAVYYCNADSVRAVSRYDYWGQGTQVTVSS	low polyreactivity
QVQLVESGGGLVQAGGSLRLSCAASGSIFAVNTMGWYRQAPGKERELVAAISQRGSSTYYADSVKGRFTISRDNAKNTVYLKMNSMKPEDTAVFFCAKRFIYGLYNYWGQGTQVTVSS	high polyreactivity
QVQLVESGGGLVQAGGSLRLSCAASGSIFAWNAMGWYRQAPGKERELVATIRSTGGSTYYADSVKGRFTISRDNAKNTVYLQMNSLKPEYTAVYYCAADYQAGDKLYDYWGQGTQVTVSS	low polyreactivity
QVQLVESGGGLVQAGGSLRLSCAASGSIFAWYGMGWYRQAPGKERELVAAISTAGSTNYADSVKGRFTISRDNAKNSVYLQMNSLKPEDTAVYYCAKKSSWYYPERFDYWGQGTQVTVSS	low polyreactivity
QVQLVESGGGLVQAGGSLRLSCAASGSIFAWYGMGWYRQAPGKERELVAAITSTGSTYYADSVKGRFTISRDNAKNTVYLQMNSLKPEDTAVYYCNAYSVYLWRPGDYWGQGTQVTVSS	low polyreactivity

Sequence	polyreactivity (PSR sort gate)
QVQLVESGGGLVQAGGSLRLSCAASGSIFAYNAMGRYRPAPGKERELVAAITSDDSTNYADSVKGSFTISRDNAQNTVYLQMNSLKPEDTAVYDCAAYYYYTYIIGYDYCGQGTQVTVSS	low polyreactivity
QVQLVESGGGLVQAGGSLRLSCAASGSIFAYNAMGWYRQAPGKEREFVAAISQSGGRTYYADSVKGRFTISRDNAKNTVYLQMNSLKPEDTAVYYCATDGIRLTRHRDYDYWGQGTQVTVSS	low polyreactivity
QVQLVESGGGLVQAGGSLRLSCAASGSIFAYNAMGWYRQAPGKEREFVAVITRSDDSTYADSVKGRFTISRDNAKNTVYLQMNSLKPEDTAVYYCAAEYYETPYASLGYDYWGQGTQVTVSS	low polyreactivity
QVQLVESGGGLVQAGGSLRLSCAASGSIFAYNAMGWYRQAPGKERELVAAITDSGGSTFYADSVKGRFTISRDNAKTTVYLQMNSQKPEDTAVYYCATSGDRLVWGQCTQVTVSS	low polyreactivity
QVQLVESGGGLVQAGGSLRLSCAASGSIFAYYAMGMYRQEPGKERELVAVIRSGGSTYYADSVKGRFTISRDNAKNTVYLQMNSLKPEDTAVYYCAARSYRPTRGDYWGQGTQVTVSS	high polyreactivity
QVQLVESGGGLVQAGGSLRLSCAASGSIFAYYAMGWYRPAPGKERELVAAITVSGGRTNYADSVKGRFTISRDNAKNTVYLQMNSLKPEDTAVYYCAADTYSYWYARYDYWGQGTQVTVSS	high polyreactivity
QVQLVESGGGLVQAGGSLRLSCAASGSIFAYYAMGWYRQAPGKEMELVARIRRRSSSTFYADSVKGRFTISRDNAKNTVYLQMNSLKPEDTAVYYCAVRGPGTSTYWYHEYEYWGQGTQVTVSS	high polyreactivity
QVQLVESGGGLVQAGGSLRLSCAASGSIFAYYAMGWYRQAPGKERELVAAISRGGGSTYYADSVKGRFTISRDNAKNTVYLQMNSLKPEDTAVYYCAAQYVYWTNRVRQHVTLNDYWGQGTQVTVSS	high polyreactivity
QVQLVESGGGLVQAGGSLRLSCAASGSIFAYYAMGWYRQAPGKERELVAAISWSGGRTYYADSVKGRFTISRDNAKNTVYLEMNSLIPEDTAVYYCTAYFYSFYYPFPYESWGQGTQVTVSS	low polyreactivity
QVQLVESGGGLVQAGGSLRLSCAASGSIFAYYAMGWYRQAPGKERELVAAITSGDSTYYADSVKGRFTISRDNAKNTVYLQMNSLKPEDTAVYYCAADHIWFYFYLYDYWGQGTQVTVSS	high polyreactivity
QVQLVESGGGLVQAGGSLRLSCAASGSIFAYYTMGWYRQAHGKERELVAAISRSGGSTNYADSVKGRFTISRDNAKNTVYLQMNSLKPEDTAVYYCAVRRYSRRLFGYYYWGQGTQVTVSS	high polyreactivity
QVQLVESGGGLVQAGGSLRLSCAASGSIFCYYAMGWYRQAPGKERELVAAINSGVRTYYADSVKGRFTISRDNAKNTVYLQMISLKPEDTAVYYCAARYIFKGLRYGYWGQGTQVTVSS	high polyreactivity
QVQLVESGGGLVQAGGSLRLSCAASGSIFDAYMGWYRQAPGKERELVAGITRSGGSTYYADSVKGRFTISRDNAKNTVYLQMNSLKPEDTAVYYCAADYSSDGDYWGQGTQVTVSS	low polyreactivity
QVQLVESGGGLVQAGGSLRLSCAASGSIFDDNAMGWYRQAPGKERELVAAITSTDSTNYADSVKGRFTISRDNAKNTVYLQMNSLKPEDTAVYYCAKDARALWLHSGIYDYWGQGTQVTVSS	low polyreactivity
QVQLVESGGGLVQAGGSLRLSCAASGSIFDDYAMGWYRQAPGKERELVAANSGSGDITYYADSVKGRFTISRDNAKNTFYLQMNSLKPEDTAVYYCAAESVYTFYWGQGTQVTVSS	high polyreactivity
QVQLVESGGGLVQAGGSLRLSCAASGSIFDDYVMGWYRQAPGKERELVAAIRSSGGRTYYADSVKGRFTISRDNAKNTVYLQMISLKPEDTAVYYCNAVTKHRQSVPYAYGYWGQGTQVTVSS	high polyreactivity
QVQLVESGGGLVQAGGSLRLSCAASGSIFDGNAMGWYRQAPGKERELVASITYRGGSTYYADSVKGRFTISRDNAKNTVYLQMNSLQPEDTAVYYCAAVFKYRYDYWGQGTQVTVSS	low polyreactivity
QVQLVESGGGLVQAGGSLRLSCAASGSIFDGYAMGWDRQAPGKEREFVATITVSGGRTYYADSVKGRFTISRDNAKTTVYLQRNSLKPEDTAVYYCAARKVPLIRSSTVRQYYYWGQGTQVTVSS	high polyreactivity
QVQLVESGGGLVQAGGSLRLSCAASGSIFDGYAMGWYRQAPGKEREFVAAITKRTGRTYYADSVKGRFTISRDNAKNTVYLQMNSLKPEDTAVYSCAARKKSLTTLRYGYWGQGTQVTVSS	high polyreactivity
QVQLVESGGGLVQAGGSLRLSCAASGSIFDGYAMGWYRQAPGKERELVAAISASGVRTYYADSVKGRFTISRDNAKNTVYLQMNSLKPEDTAVYYCAAAVYYGQSVWYYYWGQGTQVTVSS	high polyreactivity
QVQLVESGGGLVQAGGSLRLSCAASGSIFDHNAMGWYRQAPGKEREFVAAISSSGGSTYYADSVKGRFTISRDKAKNTVYLQMNSLKPEDTAVYYCAAFPDRYVEHGYWGQGTQVTVSS	low polyreactivity
